This data set concerns the target T1, MHP14+ meganuclease (single-chain engineered I-CreI) (artificial).
T1 chain: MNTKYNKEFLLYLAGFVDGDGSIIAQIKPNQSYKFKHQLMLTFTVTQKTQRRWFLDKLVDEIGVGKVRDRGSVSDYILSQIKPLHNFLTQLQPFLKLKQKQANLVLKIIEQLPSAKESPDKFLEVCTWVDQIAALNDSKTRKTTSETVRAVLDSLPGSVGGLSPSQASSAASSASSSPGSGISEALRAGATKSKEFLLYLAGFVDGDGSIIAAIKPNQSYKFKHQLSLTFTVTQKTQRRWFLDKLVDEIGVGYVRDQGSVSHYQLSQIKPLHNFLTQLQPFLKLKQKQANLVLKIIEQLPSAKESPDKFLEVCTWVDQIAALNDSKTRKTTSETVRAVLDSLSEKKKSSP
Kind of data set: cleavage_in_vitro; depends on reaction temperature. The conditions noted are these: tags: expressed from pQE80 in E. coli, Ni-NTA purified. On the procedure: To generate material for the capture of genomic variant recognition sites, in vitro assays were carried out with 114 nM of purified meganuclease protein isolated as described in Example 2 and 6.07 μg of purified maize genomic DNA at 32° C. for 80 minutes in a final volume of 80 μl in the presence of digestion buffer (50 mM Tris-HCl (pH 7.9), 100 mM NaCl, 10 mM MgCl₂, 1 mM DTT, […]). After 80 minutes, the entire reaction was stopped with an equal volume of stop buffer (100 mM Tris-HCl (pH 8.0), 600 mM NaCl, 2% SDS, 100 mM EDTA, 1 mg of proteinase K per ml) and incubated at 50° C. for 30-45 minutes. Stopped reactions were purified by phenol/chloroform extraction and ethanol precipitated in the presence of 0.2 M NaCl. Precipitated genomic DNA was washed twice with 70% ethanol, dried, and resuspended in 34 μl of water. […]

B1: MHP14+ maize genomic variant site (dsDNA)
DNA 1: CAAGAAGAAGCACGTCAGCTTA
DNA 2: TAAGCTGACGTGCTTCTTCTTG
Consider B1, for which the relative cleavage activity is roughly 3 fold vs intended site.

Values taken from US20160032297, “METHODS FOR THE IDENTIFICATION OF VARIANT RECOGNITION SITES FOR RARE-CUTTING ENGINEERED DOUBLE-STRAND-BREAK-INDUCING AGENTS AND COMPOSITIONS AND USES THEREOF” (E.I. DU PONT DE NEMOURS AND COMPANY, published 2016).
